{"source": "patent US20260193323", "proteins": {"B1": {"name": "KLK7 (protein)", "chain": "IIDGAPCARGSHPWQVALLSGNQLHCGGVLVNERWVLTAAHCKMNEYTVHLGSDTLGDRRAQRIKASKSFRHPGYSTQTHVNDLMLVKLNSQARLSSMVKKVRLPSRCEPPGTTCTVSGWGTTTSPDVTFPSDLMCVDVKLISPQDCTKVYKDLLENSMLCAGIPDSKKNACNGDSGGPLVCRGTLQGLVSWGTFPCGQPNDPGVYTQVCKFTKWINDTMKKHR"}}, "key": {"LEKTI domains 10-15": {"biological_target": "T1, LEKTI domains 10-15", "T1 chain": "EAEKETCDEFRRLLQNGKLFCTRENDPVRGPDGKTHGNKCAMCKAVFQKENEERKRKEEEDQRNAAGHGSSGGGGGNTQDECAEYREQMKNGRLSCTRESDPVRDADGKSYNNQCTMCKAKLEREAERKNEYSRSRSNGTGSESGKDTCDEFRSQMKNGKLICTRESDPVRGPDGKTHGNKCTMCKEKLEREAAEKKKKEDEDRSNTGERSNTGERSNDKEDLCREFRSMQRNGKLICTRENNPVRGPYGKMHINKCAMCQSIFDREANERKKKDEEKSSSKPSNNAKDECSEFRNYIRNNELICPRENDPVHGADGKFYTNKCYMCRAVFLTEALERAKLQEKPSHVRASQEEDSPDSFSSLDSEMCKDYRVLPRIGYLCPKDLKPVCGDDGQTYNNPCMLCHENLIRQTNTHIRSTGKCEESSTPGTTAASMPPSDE"}, "[1]": {"biological_target": "T2, recombinantly produced LEKTI Domain 6", "T2 chain": "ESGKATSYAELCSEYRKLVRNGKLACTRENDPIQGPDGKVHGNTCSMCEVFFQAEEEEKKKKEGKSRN"}}}
{"protein": "B1", "values": [{"measurement": "KLK7 activity (Suc-Arg-Pro-Tyr-p-Nitro-Anilide substrate, 405 nm)", "setting": "LEKTI domains 10-15", "result": "recombinantly produced LEKTI Domain 6 inhibits KLK7 in vitro about as well as LEKTI domains 10-15"}, {"measurement": "KLK7 activity (Suc-Arg-Pro-Tyr-p-Nitro-Anilide substrate, 405 nm)", "setting": "[1]", "result": "recombinantly produced LEKTI Domain 6 inhibits KLK7 in vitro about as well as LEKTI domains 10-15"}]}
